A short description of the series: yeast display, Sf9 membrane polyspecificity reagent, FACS + sequencing; frameworks hold sequencing errors. Summed up:
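In a synthetic yeast display library (Saccharomyces cerevisiae BJ5465), nanobody expression was induced with galactose for 36–48 hours. FACS gates were set low and high (top ~1%) using anti-HA fluorescence for expression and streptavidin fluorescence for binding of the Sf9 membrane reagent. Each polyreactivity label is drawn from the gate of origin.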
Turning to “QVQLVESSGGLVQAGGSLSLICAASGIIFYGYAMGWYRQAPGKERELVASIRSGSNTYYADSVKGRFTISRDNAKNTVYLQMNSLKPEDTAFYSCAARVVPATFRFIRYPHPYYYWGQGTQVTVSS”, the “polyreactivity (PSR sort gate)” value is reported as “low polyreactivity”.
For the sequence “QVQLVESVGALVQAGGSLRLSCAASGSIFIPYAMGWYRQAPGKEWEFVATITFGAASTYYADSVKGRFTISRDNAKNTVYLQMNSLKPEDTAVYYCNAEGYVYPYYREGDYWGQGTQVTVSS”, the “polyreactivity (PSR sort gate)” value is on record as “low polyreactivity”.
With “QVQLVESVGCLVQAGGSLRLSCAASGFIFGSYTMGWYRPAPGKESELVAAISSSGGNTYYADSVKGRFTISRDHAKNTVYLQMNSLKPEDTAVYYCAVDYIYDDAYNYWGQGTQVTVSS”, the “polyreactivity (PSR sort gate)” value is recorded as “high polyreactivity”.
Take “QVQLVESVGCLVQAGGSLRLSCAASGRIFTSNAMGWYRQAPGKERELVAAITRRGGTTYYADSVKGRFTISRDNSKNTVYFQMNSLNPEDTAVYYCATIITVASWYDYWGQGTQVTVSS”: the “polyreactivity (PSR sort gate)” value is listed as “low polyreactivity”.
As for “QVQLVESVGGFVQAGGSLRLSCAASGFTFRIYAMGLYRKATVKERELVAGITWSVGSTYYADSVKGRFTISRDNAKNTVYLQMNSLKPEETAVYYCAVRRNQHVVQLYYWGQGTQGTVSS”, the entry is “low polyreactivity”; as for “QVQLVESVGGFVQAGGSLRLSGAASGRTFNFNTMGWSRQAPGKERELVASITSGGSTNYADSVKVRFTISRDNAKNTVYLQMNILKPEDPAVYYCAVTVSGPYAYDYWGQGTQVTVSS”, “low polyreactivity”.
As for “QVQLVESVGGFVQAGGSLRLSSAASGFIFRSYAMGSYRQAPGKERELVAVISRRGVNTHYADSVKGRFTISRDYAKYTVYLQMNSLKPEDTAVYDCAKGLTALGDYWGQGSQVTVSS”, the “polyreactivity (PSR sort gate)” value was “high polyreactivity”.
For the sequence “QVQLVESVGGFVQARGSLRLSCAASGFTFSYNAMRWYSQAPGKERELVATIRSSGGSTNYADSVKGRFTISRDNAKNTVYVQMNSLKPEDTAVYYCAADFSYYSTYDYWGLGTQVTVSS”, the “polyreactivity (PSR sort gate)” value was “low polyreactivity”.
As for “QVQLVESVGGIVQAGGSLRLSCAASGRIFGTNTMGWYRQAPGKERELVAGISSSGDSTYYADSVKGRFTISRDNAKNTVYLQMNSLKPEDTAVYYCNVYDYPTYDYWGQGTQVTVSS”, the entry is “low polyreactivity”; as for “QVQLVESVGGLLQAGGSLRLSCAASGSIFFVYTMGWYRQAPGKERELFATITDSDGGTYYADSVKGRFTISRDNAKNTVYVQMNSLKPEDTAVYYCAAEVEVYFAIYEYWGQGTQVTVSS”, “low polyreactivity”; as for “QVQLVESVGGLVKAGGSLRLSCAASGSIFGTNAMGWYRQAPGKERELVAVISDGGSTYYADSVKGRFTISRENAKNTVYLQMNSLKPADTAVYYCNTPLESPFYSRVGTTESDHWGQGTQVTVSS”, “low polyreactivity”.
Regarding “QVQLVESVGGLVLAGARLRLSCAASGRIFRFYAMGWYREAPGKERELVAAISSGGRTYSADSVKGRFTISRDNAKNTVYLQMNSLKPEDTAVYYCNTPYTVRGRYTSDYWGQGTQVTVSS”, the “polyreactivity (PSR sort gate)” value was “high polyreactivity”.
For “QVQLVESVGGLVPAGGSLRLSCAASGFTYPAYTMGWYRQAPGKERELVAAITSSGGNTYYADSVKGRFTISRDNAKNTVYLQMNSLKPEDTAVYYCYADASSSPYTDRQYIGADDSWGQGTQVTVSS” the value was “low polyreactivity”; for “QVQLVESVGGLVQAGGILRLSCAASGSTFLDNAMGLYRQAPGKERELVAAITQSGSSTYYADSVKGRFTISRDNAKNTVYLQMNSLKPEDTAVYYCAADVPIISFDYWGQGTQVTVSS”, “low polyreactivity”.
As for “QVQLVESVGGLVQAGGRLRLSCAASGLIFDDYSMGCYRQAPGKEREFVSAISWSDGTTYYADSVKGRFTISRDNAKNTVYLQMNSLKPEDTAVYYCAARLARAGYWRRNYYYWGQGTQVTVSS”, the entry is “high polyreactivity”; as for “QVQLVESVGGLVQAGGRLRLSCAASGLTFTHYTMGWYIQAPGKERELVAAISQTGGSTYYADSVKGRFTISRDNEKNTVYLQMNSQKPEDTADYYCSRVFPRPRPGYYNWGQGTQVTVSS”, “high polyreactivity”.
On to “QVQLVESVGGLVQAGGSLGLTCAASGFIFRYYAMGWYRQAPGLERELVAPINASGGRTYYADSVKGRFTISRDNARNTLYLQMNSLKPEDTAVYYCAAYRSYQTFDYWGQGTQVTVSS”, for which the “polyreactivity (PSR sort gate)” value is on record as “high polyreactivity”.
As to “QVQLVESVGGLVQAGGSLLLSCAASGRTFTKYAMGWYRLAPGKEGELVAAISRSGTSTYYADSVKGRFTISRDNEKNTVYLQMNSLKPEDTAVYYCATVSAKYHSVHFGYWGQGTQVTVSS”, the “polyreactivity (PSR sort gate)” value was “high polyreactivity”.
“QVQLVESVGGLVQAGGSLRLICAASGRIFVHYAMGWYRQAPGKERELVAAISWNGGRTFYADSVKGRFTISRDNAKNTVYLQMNSLKPEDTAVSYCAARSRYSLDYWGQGTQVTVSS”: the “polyreactivity (PSR sort gate)” value is reported as “high polyreactivity”.
As for “QVQLVESVGGLVQAGGSLRLICAASGSIFIGYAMGWYRQAPGKERELVAAISNSGGRTYYADSVKGRFTISRDYAKNTVYLQMNSLKPDDTAVYYCAARLRYRGRRYDYWGQGTQVTVSS”, the entry is “high polyreactivity”; as for “QVQLVESVGGLVQAGGSLRLICAASGSIFSRYAMGWYRQAPGKEREFVARITQRGGSTYYADSVKGRFTISRDNAKNTVYLQRQSLKPEDTAVYYCNADHYRRLLAEDYWGQGTQVTVSS”, “low polyreactivity”.
As for “QVQLVESVGGLVQAGGSLRLSCAASGDTFTSYAMGRYRQAPGKVRELVAAISRRGGSTYYAESVKGRFTISRDNAKNTVYLLMNSLKPEDTAFYYCAAKSYSYTEFDYGGQGTQVTVSS”, the entry is “high polyreactivity”; as for “QVQLVESVGGLVQAGGSLRLSCAASGFIFGSNAIGWYRQAPGKERELVAAITYSGASTYYADSVKGRFTISRDNAKNTVYLQMNRLKPEDTAVYYCATRYSVFVSGRFNYWGQGTQVTVSS”, “low polyreactivity”.
Regarding “QVQLVESVGGLVQAGGSLRLSCAASGFIFKSYSMGWYRQAPGKERELVAAISGRGGSTYYADSVKGRFTISRDNAKNTVYLQMNSLKPEDTAVYYCNVVPSTYYQYDYWGQGTQVTVSS”, the “polyreactivity (PSR sort gate)” value is given as “high polyreactivity”.
As for “QVQLVESVGGLVQAGGSLRLSCAASGFIFPYYVMGWYRQAPGKERELVAAITSVGITYYADSVKGRFTISRDNAKNTVYLQMNSLKPEDTAVYYCAADYKYFYDWGSFVEDEYWGQGTQVTVSS”, the entry is “high polyreactivity”; as for “QVQLVESVGGLVQAGGSLRLSCAASGFIFRPYAMGWSRQAPGKERELVAAISWSGDRTYYADSVKGRFTISRDNAKNTVYLQMNSLKPEDTAVYYCAAEGVTRDYDYWGQGTQVTVSS”, “low polyreactivity”; as for “QVQLVESVGGLVQAGGSLRLSCAASGFIFSYYAMGRYRQAPGKERELVATINFSGGRTYYADSVKGRFTISRDNAKNTVYLQMNSLKPEDTAVYYCAAVARSRAAPGVGYWGQGTQVTVSS”, “high polyreactivity”.
For “QVQLVESVGGLVQAGGSLRLSCAASGFIFTHYAMGWYRQAPGKERELVAAISSGGSTYYADSVKGRFTISRDNAKNTVYLQMNSLKPEDTAVYYCAAVWPWRYYATGENYWGQGTHVTVSS”, the “polyreactivity (PSR sort gate)” value was “high polyreactivity”.
As to “QVQLVESVGGLVQAGGSLRLSCAASGFISYYYAMGWYRQAPGKEREFVAAITSSGGSTRYADSVKGRFTISRDNAKNPVYLQMNSLKPEDTAVYYCAARKARPPFPHPFDYYWGQGTQVTVSS”, the “polyreactivity (PSR sort gate)” value is listed as “low polyreactivity”.
For “QVQLVESVGGLVQAGGSLRLSCAASGFIYGWNAMGWYRQAPVKERELVASIRSSGGTTYADSVKGRFTISRDNAKNTVYLQMNSLKAEDNAVYYCARRVLGLLELDYWGQGTQVTVSS” the value was “low polyreactivity”.

The record behind these values is the nanobody polyreactivity screen of Harvey et al. (2022).
